From the DeepSol protein solubility set

Test: soluble on expression in E. coli; label from the status in PepcDB or PDB records

Sequence	soluble on expression in E. coli
QTSAVQQKLAALEKSSGGRLGVALIDTADNTQVLYRGDERFPMCSTSKVMAAAAVLKQSETQKQLLNQPVEIKPADLVNYNPIAEKHVNGTMTLAELSAAALQYSDNTAMNKLIAQLGGPGGVTAFARAIGDETFRLDRTEPTLNTAIPGDPRDTTTPRAMAQTLRQLTLGHALGETQRAQLVTWLKGNTTGAASIRAGLPTSWTAGDKTGSGDYGTTNDIAVIWPQGRAPLVLVTYFTQPQQNAESRRDVLASAARIIAEGL	soluble
MKAPLVSIIIPVWNLWELTCACLDSIRAHTPGNAVEVIVVDNGSDDTTATALAPTGEGLFGARFRRIRLETNRGFAVACNLGAAKAQGTYLLLLNNDTVLSPGWLPPLLREFDDEPRTGAAGPLLVYPDSGRVQHCGIAFAPTLQTEHLYANFPATHPAVRARRTLQAITGAAMLLPTALFRQCGGFHEGYKNGCEDLELCCRIREQGLRLAVVPESLVAHHESRTPGRKEHDAANATLLNRRCSGCFGPDLHRHALRDGFAIALTPWLDTYLTLPPGREAALTREHITDFDPGRCWETLQGEPLWHGGYEMLCSILDEAGRHAESAGVRLLQAGFFPTLPGFRQLARSAALSGNDELARQAAEKMQHIGGILEDPEPLVTRARGLVRWARRAGEPAVEALYTGWLTDIGLSADDLEHHHHHH	soluble
MEHKLEDIIAIFNQCFEEEYNTRLVKGGDEPIYLPANDEVPYNAIYFARGFYSSALHEIAHWLVAGKERRKLEDFGYWYEPDGRSEERQRDFEKVEVKPQALEWILATAAGFRYFASADNLNGNPGDTQPFKQAVYEQVKIYAEKGLPKRAETLRKALVAFYSTEDDINLAKFDVTCI	not soluble
MGSDKIHHHHHHMSLKELLKDRLSEEELKLVRRSFEIIGDVVIIEIPDEIMHHSRDIVEAILKRHKHVKTVLRKVGEVDGVYRVARYEPIYGEKTETVVREHGCRFLVDPTKAYYSVKLSGERERIARLVGEGERVLVMFAGVGPYPIVIAKLARPREVVGVELNPHAVEYFRQNVRLNKVEGVVKVIEGDVEEVVPQLSGQFDRVVMPAPYSAENFIHLLRGKVRRGGFVHYYTFDSQNEEKILPEKVRRKFEDEGLEVEVVKMRRCGNFAPYVNRYVLDLRVL	not soluble
MSISKDSRIAIIGAGPAGLAAGMYLEQAGFHDYTILERTDHVGGKCHSPNYHGRRYEMGAIMGVPSYDTIQEIMDRTGDKVDGPKLRREFLHEDGEIYVPEKDPVRGPQVMAAVQKLGQLLATKYQGYDANGHYNKVHEDLMLPFDEFLALNGCEAARDLWINPFTAFGYGHFDNVPAAYVLKYLDFVTMMSFAKGDLWTWADGTQAMFEHLNATLEHPAERNVDITRITREDGKVHIHTTDWDRESDVLVLTVPLEKFLDYSDADDDEREYFSKIIHQQYMVDACLVKEYPTISGYVPDNMRPERLGHVMVYYHRWADDPHQIITTYLLRNHPDYADKTQEECRQMVLDDMETFGHPVEKIIEEQTWYYFPHVSSEDYKAGWYEKVEGMQGRRNTFYAGEIMSFGNFDEVCHYSKDLVTRFFV	soluble
MVCKVCGQKAQVEMRSRGLALCREHYLDWFVKETERAIRRHRMLLPGERVLVAVSGGKDSLALWDVLSRLGYQAVGLHIELGIGEYSKRSLEVTQAFARERGLELLVVDLKEAYGFGVPELARLSGRVACSACGLSKRYIINQVAVEEGFRVVATGHNLDDEAAVLFGNLLNPQEETLSRQGPVLPEKPGLAARVKPFYRFSEREVLSYTLLRGIRYLHEECPNAKGAKSLLYKEALNLVERSMPGAKLRFLEGFLEKIRPRLDVGEEVALKECERCGYPTTGAVCAFCRMWDAVYRRAKKRRLLPEEAVFHPKAPVARG	soluble
MMTDKLNLNVLDAAFYSLEQTVVQISDRNWFDMQPSIVQDTLIAGAIQKFEFVYELSLKMMKRQLQQDAINTDDIGAYGFKDILREALRFGLIGDMSKWVAYRDMRNITSHTYDQEKAMAVYAQIDDFLIESSFLLEQLRQRNQYD	soluble
MINKPNQFLNHLDGLKQHFSDYDSLQKSFKKYLSENQTELNNFFFNQFEKIIVLVKKKEFKTAQERCEEELATPYFSKPLVGFFQSLLQLINHDLIEQKNQQLANMSCEKIVEMVLSDYPNKLNLIHYLLAKEASFVNPNLLQRMTFVLTDLELLELKRFSFFKALNQIPAFKNHKVTYFNSKLKQKFVITLGEFAFPQTDKTKQFFQQLIKKVSQLFLKEPVSCEFAYEIIDALLVSFFPLHPNLEVNHLAKKIHQYVSKIVINEVVDLKDPTTKLIVDTLYEQLDRAIGEEN	soluble
MVEADHPGKLFIGGLNRETNEKMLKAVFGKHGPISEVLLIKDRTSKSRGFAFITFENPADAKNAAKDMNGTSLHGKAIKVEQAKKPSFQSGGRRRPPASSRNRSPSGSLRSARGSSGGTRGWLPSHEGHLDDGGYTPDLKMSYSRGLIPVKRGPSSRSGGPPPKKSAPSAVARSNSWMGSQGPMSQRRENYGVPPRRATISSWRNDRMSTRHDGYATNDGNHPSCQETRDYAPPSRGYAYRDNGHSNRDEHSSRGYRNHRSSRETRDYAPPSRGHAYRDYGHSRRDESYSRGYRNHRSSRETREYAPPSRGHGYRDYGHSRRHESYSRGYRNHPSSRETRDYAPPHRDYAYRDYGHSSWDEHSSRGYSYHDGYGEALGRDHSEHLSGSSYRDALQRYGTSHGAPPARGPRMSYGGSTCHAYSNTRDRYGRSWESYSSCGDFHYCDREHVCRKDQRNPPSLGRVLPDPREAYGSSSYVASIVDGGESRSEKGDSSRY	soluble
MGSDKIHHHHHHMRTIEDDAALKILADVIKIPSVNDHELTVAKYLQDLLAKYDISAKIHPITGDRANLVAEIGHGQPVLAVSGHMDVVAAGDLAAWDTDPFTLVEKSGQLFGRGVTDMKAGLVALVVAMINIQQQGGPKHGTIRLLATMGEEVGEAGSAAFYQQGAMQDAAGLLIAEPSTVYGTAAEQKGSCDLKLTSKGKAVHSSTPERGYNALVPLIKLLNEANDYFETIPAGEMGPVRFNIDVLNGGDQVNSLPDLATALVNVRTIPEYDNDQVTQKLADLIAAYNQQGADIKMTAIMNESPIATTADNRLVKLVQAIGKPYAGRDVVVASSPGITDASNLAKRQPADFPFAVYGPGNMTQHQVNESLPKQMFYDFIAIYQQLFTRFLAE	not soluble
MRDIQQVLERWGAWVANNHEDVTWSSIAAGFKGLIPSKVKSRPQCCDDDAMVICGCMARLNRNNNDLHDLLVDYYVFGMTFMTLARKHGCSDGYIGKKLQKAEGVVEGMLMMLGVRLEMDKYIEHP	not soluble
MGSDKIHHHHHHMENLLEVQQLNKSYKNSEFQLTDITFSVKPGEVVGLIGKNGSGKSTLINTLVGNRHKDNGSLKFFNKEVTENDFKYKEHLGVVFDDLRVPDKLTLQSINKVFTEIYDAWNSDTFFSLIKAFELPTNNQIKTFSRGMRMKAALTIALSHDAKLLILDEATAGMDVSGREHVLEILEDYLGDDRAILISSHISEDIEQLATQLVFMRDGRIILKESKEVLLSQYGIIDQPVEHFNISNEYLIATRRRNDRQISLVNNYQKVPDAQPLKTIDDATKIIMRGEV	not soluble
GPGSMHASVVLNMCTASQYTRRTLQSLFERREVDLSALVHVLADNAGYLAATQQGCISLMRVFELCDAAQKAELVRELLPKLAALSMDAFANYMVQCAIEHSDRATAAQYVVAHFTGNILQMSCNKHSSNVLEVVLRCCGEVPAVRRLFLDELVFNPAALKEVVGDLYGNFVVQALIGVVTNPMEFKRVEDRLRPALVGCQFAAKIEGKIKAKRPVPPHAGGAVHHHSYPQSRQQRPLSVPCTMPDHVGPCAPSVRATIALPQAPVMSLGEARVPTQGYCHRPYDCNPLCCAPLAAEQQQPQNVVQAPSGHVYPVDHFQFPILKERTAARAAGAVPVTDGEDSGPVYGPSPAARRHLQQQQQQAFRPPFNIMC	not soluble
MNGCKQSASKVFKLVGGFNKASSRCFSSEKLIPKDLKIVKNPTSEQIKQFQKLVGDFNDIKLLKETMKDNYQLYLLCHKDSTVLSGTQSITYKSLNRSIPDFQTFGLSYQPDNTYNLLPHLMHEMATDFKSVKMNSGGCVDSKYAAVWRKVLHTKVRGPTYYVSHYKPDEVFNPELEFDDVVVKKFSDVPVEHVVKYDNSIFPYERKEYILAKFKNGVGRVAYNKSGEVIGIGLVSTESSGNCEIGPIYCDNKNAAQAIFQSIIQDLPMKDLKDVLVRCSDKFEDSATWIRPFLRRSHEMTPFAHIKFNRVIPDGLNFSKVFVSSNPSNAPC	not soluble
MSLPTNPFISLFGRSPIGPMQQHIAKAHECAAGLLPFFRAVIAEDWAQVEQVQQDMVRLEQEADRLKKHVRMHLPKSLFLPVPRSDLLELLSVQDKVANRAKDIAGLMLGRRMRIPLPLQGQMLAYVQRSVDASAQALRVVNELNELLETGFGGRETSLVESMVEELEAIENDTDRIQVEVRRELFRLESELPPVDVMFLYQIIEWIGDVADRAQRVGNRLEQLLAREGHHHHHH	soluble
MGSDKIHHHHHHMTNGRILFIREREFARSNVINYGMALVATAASKAFSVRAIDNNGLYRLYSHDDIAAEVEHFRPDVIGLSIITANALTSYETAEMLKRRFPDIPILAGGLHVSHQVGEALESGIDYVVRGEADLTIVPLLSALVEARDRGMPPDFTGIAGVSHGRGEAFVDGGNATLPLNLDEHSDVDFGLYDLGDFYRHPRDSLAIGSVLTQRGCPFRCTFCSDQYLSQSVRYRSIARSVDEIEDKLDRFGVNIFNIRDADFTMHNERVVEFCNELIRRGLHNRINLTIETDSFRVIPRDTLALMKQSGFSSIGFGIERLTPEIQRRIKKNISRSRIMENLKNCRELGFVISVHCLIGFSFDTMEDIAREQALFDELADQYVDIVSASIVVACPGTSEFSAVPPERSSWYLNPSAFPSRRPLYQVVRRFQYDPRHVPIYDFPPGMMERMMDFRDHFRKKTIGKRGRPLLWAYLLMLQIARLSEALYAASPRLERATFGWTLDWLETLNAIFTKLWAKRNDDRVNANHSCGQTPQP	not soluble
MENGHLAKVDLTKKIESKSKYNKKLEKYQRRLLALQQILKEEKIAVMLVMEGWDAAGKGGAIKRVTEHLDPRGFQVDPIGAPAPHEKRYHYLQRFWRKIPQYGQITIFDRSWYGRVLVERVEGFATKEEWMRAYDEINDFEKLLTDDHYIIGKFFYHISKEEQLKRFKDREKNPLKRWKITDEDWRNREKWDEYVEAMEDMFEKTSKPNAKWHIIESNDKLYARVKTLKIIISFIEDYFLEHGIELPSYYYEMKEDIEVLQDVGVKE	not soluble
MSLVNSLTHYEILRIPSDATQDEIKKAYRNRLLNTHPDKLSKSIHDTVSNVTINKIQDAYKILSNIKTRREYDRLILENYKRQGFHNCGDGLDEFSLDDFSFDEDKLEFMMNCPRCQFVGGFHFSESLLDECIDNVDAMERSHSGYQLLTQCSACSLWLKVNFDIEEEQEGQ	not soluble
MSLEASLVKLSEQELTSLNYAFQQMRKPLQTINYDYAVWDRTYSYMKSNSASAKRYYEKHEYPDDTFKSLKVDGVFIFNRTNQPVFSKGFNHRNDIPLVFELTDFKQHPQNIALSPQTKQAHPPASKPLDSPDDVPSTHGVIATRYGPAIYSSTSILKSDRSGSQLGYLVFIRLIDEWFIAELSQYTAAGVEIAMADAADAQLARLGANTKLNKVTATSERLITNVDGKPLLKLVLYHTNEGHHHHHH	not soluble
DEAMVKIEKQEIVEHLSENSLLVQLKYAGASTDEPLLNELYKHYQVMANILYGNIEILDGTPVGELVVVLSGEKAALAGAQEAIRQAGVQLKVLKGVQ	not soluble
VRAPVTKVHGGAGSAQRMPLCDKCGSGIVGAVVKARDKYRHPECFVCADCNLNLKQKGYFFVEGELYCETHARART	soluble
